According to patent US20220324974A1 (SORRENTO THERAPEUTICS, published 2022):
Blank lines part the entries; values can stand above or below the binder they belong to.

Legend:
[1] = target: T1, CD38 expressed on human tumor cell lines (RPMI8226, MM1.R and other CD38(+) lines) (human, UniProt P28907 1-300); assay: cell-based or functional assay
[2] = target: T1, CD38 expressed on human tumor cell …; assay: cell-based or functional assay; remark: listed apart in the source
[3] = target: T2, CD3 antigen on primary human T cells (human, UniProt P07766 23-207; P04234 22-171; P09693 23-182); assay: flow cytometry on CD38-minus primary human T cells
T2 construct: CD3 is a multi-chain complex; also called CD3-expressing T cells; CD3-expressing CD38-minus T cells

[4] = target: T2, CD3 antigen on primary human T cells; assay: flow cytometry on freshly isolated primary human T cells, anti-human Fc-APC secondary, GeoMean RL1-H of singlets
[5] = target: T2, CD3 antigen on primary human T cells; assay: as above; remark: listed apart in the source
[6] = target: T3, BCMA expressed on MM1.R myeloma cells (UniProt Q02223 1-184); assay: cell-based or functional assay
T3 sequence (looked up): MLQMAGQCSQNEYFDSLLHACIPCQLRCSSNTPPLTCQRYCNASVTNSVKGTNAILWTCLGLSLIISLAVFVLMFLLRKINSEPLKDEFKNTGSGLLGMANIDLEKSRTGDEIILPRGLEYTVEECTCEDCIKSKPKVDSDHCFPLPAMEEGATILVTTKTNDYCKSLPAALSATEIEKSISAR

[7] = target: T4, BCMA target antigen (Acro Biosystems catalog # BCA-H522g) (UniProt Q02223 1-54); assay: SPR Biacore, antibody captured by anti-Fc, antigen as analyte, 1:1 model
T4 construct: range 1-54; Bought protein; also called BMCA target antigen; BCMA antigen
T4 sequence (looked up): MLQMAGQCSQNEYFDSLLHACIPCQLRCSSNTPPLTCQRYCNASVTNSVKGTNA

[8] = target: T2, CD3 antigen on primary human T cells; assay: flow cytometry on CD38-minus primary human T cells, anti-human Fc-APC secondary, GeoMean RL1-H of singlets

B1: Kv5.1 CD38/CD3 three-chain in-tandem bispecific antibody (bispecific antibody)
chain 1: QVQLVESGGGLVKPGGSLRLSCAASGFTFSDDYMSWIRQAPGKGLEWVASVSNGRPTTYYADSVRGRFTISRDNAKNSLYLQMNSLRAEDTAVYYCAREGWSGEFTDWGQGTLVTVSSASTKGPSVFPLAPSSKSTSGGTAALGCLVKDYFPEPVTVSWNSGALTSGVHTFPAVLQSSGLYSLSSVVTVPSSSLGTQTYICNVNHKPSNTKVDKRVEPKSCGGSGSGSGGSSGGGSGGGGSQVQLVQSGAEVKKPGASVKVSCKASGYTFISYTMHWVRQAPGQGLEWMGYINPRSGYTHYNQKLKDKATLTADKSASTAYMELSSLRSEDTAVYYCARSAYYDYDGFAYWGQGTLVTVSSASTKGPSVFPLAPSSKSTSGGTAALGCLVKDYFPEPVTVSWNSGALTSGVHTFPAVLQSSGLYSLSSVVTVPSSSLGTQTYICNVNHKPSNTKVDKRVEPKSSDKTHTCPPCPAPEAAGGPSVFLFPPKPKDTLMISRTPEVTCVVVDVSHEDPEVKFNWYVDGVEVHNAKTKPREEQYNSTYRVVSVLTVLHQDWLNGKEYKCKVSNKALPAPIEKTISKAKGQPREPQVYTLPPSREEMTKNQVSLSCAVKGFYPSDIAVEWESNGQPENNYKTTPPVLDSDGSFFLVSKLTVDKSRWQQGNVFSCSVMHEALHNHYTQKSLSLSPGK
chain 2: not shown
chain 3: DIQMTQSPSSLSASVGDRVTITCSASSSVSYMNWYQQKPGKAPKRLIYDTSKLASGVPSRFSGSGSGTDFTLTISSLQPEDFATYYCQQWSSNPPTFGGGTKVEIKRTVAAPSVFIFPPSDEQLKSGTASVVCLLNNFYPREAKVQWKVDNALQSGNSQESVTEQDSKDSTYSLSSTLTLSKADYEKHKVYACEVTHQGLSSPVTKSFNRGESGGSGGDKTHTCPPCPAPEAAGGPSVFLFPPKPKDTLMISRTPEVTCVVVDVSHEDPEVKFNWYVDGVEVHNAKTKPREEQYNSTYRVVSVLTVLHQDWLNGKEYKCKVSNKALPAPIEKTISKAKGQPREPQVYTLPPSREEMTKNQVSLWCLVKGFYPSDIAVEWESNGQPENNYKTTPPVLDSDGSFFLYSKLTVDKSRWQQGNVFSCSVMHEALHNHYTQKSLSLSPGK
IC50 pM, TAA-dependent cytotoxicity towards RPMI8226 cells [1]: 4.2 pM
IC50 pM, TAA-dependent cytotoxicity (MM1.R target cells by the text) [2]: 3 pM

B4: Kv4.33 (4XGS) CD38/CD3 three-chain non-tandem bispecific antibody (bispecific antibody)
heavy: QVQLVESGGGLVKPGGSLRLSCAASGFTFSDDYMSWIRQAPGKGLEWVASVSNGRPTTYYADSVRGRFTISRDNAKNSLYLQMNSLRAEDTAVYYCAREGWSGEFTDWGQGTLVTVSSASTKGPSVFPLAPSSKSTSGGTAALGCLVKDYFPEPVTVSWNSGALTSGVHTFPAVLQSSGLYSLSSVVTVPSSSLGTQTYICNVNHKPSNTKVDKRVEPKSSDKTHTCPPCPAPEAAGGPSVFLFPPKPKDTLMISRTPEVTCVVVDVSHEDPEVKFNWYVDGVEVHNAKTKPREEQYNSTYRVVSVLTVLHQDWLNGKEYKCKVSNKALPAPIEKTISKAKGQPREPQVYTLPPSREEMTKNQVSLSCAVKGFYPSDIAVEWESNGQPENNYKTTPPVLDSDGSFFLVSKLTVDKSRWQQGNVFSCSVMHEALHNHYTQKSLSLSPGKGGSGSGSGGSSGGGSGGGGSQVQLVQSGAEVKKPGASVKVSCKASGYTFISYTMHWVRQAPGQGLEWMGYINPRSGYTHYNQKLKDKATLTADKSASTAYMELSSLRSEDTAVYYCARSAYYDYDGFAYWGQGTLVTVSSASTKGPSVFPLAPSSKSTSGGTAALGCLVKDYFPEPVTVSWNSGALTSGVHTFPAVLQSSGLYSLSSVVTVPSSSLGTQTYICNVNHKPSNTKVDKRVEPKSC
light 1: not shown
light 2: DIQMTQSPSSLSASVGDRVTITCSASSSVSYMNWYQQKPGKAPKRLIYDTSKLASGVPSRFSGSGSGTDFTLTISSLQPEDFATYYCQQWSSNPPTFGGGTKVEIKRTVAAPSVFIFPPSDEQLKSGTASVVCLLNNFYPREAKVQWKVDNALQSGNSQESVTEQDSKDSTYSLSSTLTLSKADYEKHKVYACEVTHQGLSSPVTKSFNRGEC
EC50 (read off the curve) [8]: ~2 µg/mL

More lines, main results first:

fold reduction of binding to CD3 [3]: > 100 fold
B2: Kv6.1 (7GS) CD38/CD3 two-chain in-tandem bispecific antibody with non-cleavable GS second linker (bispecific antibody)
heavy: QVQLVESGGGLVKPGGSLRLSCAASGFTFSDDYMSWIRQAPGKGLEWVASVSNGRPTTYYADSVRGRFTISRDNAKNSLYLQMNSLRAEDTAVYYCAREGWSGEFTDWGQGTLVTVSSASTKGPSVFPLAPSSKSTSGGTAALGCLVKDYFPEPVTVSWNSGALTSGVHTFPAVLQSSGLYSLSSVVTVPSSSLGTQTYICNVNHKPSNTKVDKRVEPKSCGGSGSGSGGSSGGGSGGGGSQVQLVQSGAEVKKPGASVKVSCKASGYTFISYTMHWVRQAPGQGLEWMGYINPRSGYTHYNQKLKDKATLTADKSASTAYMELSSLRSEDTAVYYCARSAYYDYDGFAYWGQGTLVTVSSASTKGPSVFPLAPSSKSTSGGTAALGCLVKDYFPEPVTVSWNSGALTSGVHTFPAVLQSSGLYSLSSVVTVPSSSLGTQTYICNVNHKPSNTKVDKRVEPKSSDKTHTCPPCPAPEAAGGPSVFLFPPKPKDTLMISRTPEVTCVVVDVSHEDPEVKFNWYVDGVEVHNAKTKPREEQYNSTYRVVSVLTVLHQDWLNGKEYKCKVSNKALPAPIEKTISKAKGQPREPQVYTLPPSREEMTKNQVSLSCAVKGFYPSDIAVEWESNGQPENNYKTTPPVLDSDGSFFLVSKLTVDKSRWQQGNVFSCSVMHEALHNHYTQKSLSLSPGK
light: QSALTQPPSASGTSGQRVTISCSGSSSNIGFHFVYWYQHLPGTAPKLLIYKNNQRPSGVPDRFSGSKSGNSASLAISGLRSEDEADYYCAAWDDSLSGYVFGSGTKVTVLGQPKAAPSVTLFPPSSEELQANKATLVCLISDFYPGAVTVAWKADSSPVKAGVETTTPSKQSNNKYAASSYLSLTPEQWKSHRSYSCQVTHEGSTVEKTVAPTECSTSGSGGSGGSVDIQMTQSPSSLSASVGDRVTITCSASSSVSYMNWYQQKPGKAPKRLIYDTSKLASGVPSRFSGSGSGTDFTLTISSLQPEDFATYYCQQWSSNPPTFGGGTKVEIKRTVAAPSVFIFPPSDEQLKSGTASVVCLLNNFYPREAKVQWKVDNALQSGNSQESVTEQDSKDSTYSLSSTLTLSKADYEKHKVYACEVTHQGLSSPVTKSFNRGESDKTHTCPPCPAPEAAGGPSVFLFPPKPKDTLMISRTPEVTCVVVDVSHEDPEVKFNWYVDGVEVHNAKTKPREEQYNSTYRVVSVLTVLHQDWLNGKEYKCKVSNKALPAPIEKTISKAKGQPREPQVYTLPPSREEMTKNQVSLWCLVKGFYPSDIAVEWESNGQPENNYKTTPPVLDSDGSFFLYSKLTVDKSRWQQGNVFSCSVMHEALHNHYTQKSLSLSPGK
notes: also called control non-cleavable bispecific antibody having an in-tandem structure (Kv6.1)

EC50 (read off the curve) [4]: ~2 µg/mL
EC50 (read off the curve) [5]: ~2 µg/mL
Kd [7]: 47.7 nM
koff [7]: 0.0364 s⁻¹
kon [7]: 762000 M⁻¹ s⁻¹
B3: Kv4.33 BCMA/CD3 three-chain non-tandem bispecific antibody (bispecific antibody)
chain 1: EVQLVESGGGLVKPGGSLRLSCAASGFTSSTAWMSWVRQAPGKGLEWVGRIKSKSDGGTTDYAAPVKGRFTISRDDSKNTLFLQMNSLKTEDTAVYYCAKGGGTYGYWGQGTTVTVSSASTKGPSVFPLAPSSKSTSGGTAALGCLVKDYFPEPVTVSWNSGALTSGVHTFPAVLQSSGLYSLSSVVTVPSSSLGTQTYICNVNHKPSNTKVDKRVEPKSSDKTHTCPPCPAPEAAGGPSVFLFPPKPKDTLMISRTPEVTCVVVDVSHEDPEVKFNWYVDGVEVHNAKTKPREEQYNSTYRVVSVLTVLHQDWLNGKEYKCKVSNKALPAPIEKTISKAKGQPREPQVYTLPPSREEMTKNQVSLSCAVKGFYPSDIAVEWESNGQPENNYKTTPPVLDSDGSFFLVSKLTVDKSRWQQGNVFSCSVMHEALHNHYTQKSLSLSPGKGSGGSSGGGSGGGGSQVQLVQSGAEVKKPGASVKVSCKASGYTFISYTMHWVRQAPGQGLEWMGYINPRSGYTHYNQKLKDKATLTADKSASTAYMELSSLRSEDTAVYYCARSAYYDYDGFAYWGQGTLVTVSSASTKGPSVFPLAPSSKSTSGGTAALGCLVKDYFPEPVTVSWNSGALTSGVHTFPAVLQSSGLYSLSSVVTVPSSSLGTQTYICNVNHKPSNTKVDKRVEPKSC
chain 2: SYVLTQPASVSGSPGQSVTISCTGTSSAHGGHYYVSWYQQHPGKAPKLMIYDVSNRPSGVSNRFSGSKSGNTASLTISGLQAEDEADYYCGSYTSSGSYVFGTGTKLTVLGQPKAAPSVTLFPPSSEELQANKATLVCLISDFYPGAVTVAWKADSSPVKAGVETTTPSKQSNNKYAASSYLSLTPEQWKSHRSYSCQVTHEGSTVEKTVAPTESSGGSGGDKTHTCPPCPAPEAAGGPSVFLFPPKPKDTLMISRTPEVTCVVVDVSHEDPEVKFNWYVDGVEVHNAKTKPREEQYNSTYRVVSVLTVLHQDWLNGKEYKCKVSNKALPAPIEKTISKAKGQPREPQVYTLPPSREEMTKNQVSLWCLVKGFYPSDIAVEWESNGQPENNYKTTPPVLDSDGSFFLYSKLTVDKSRWQQGNVFSCSVMHEALHNHYTQKSLSLSPGK
chain 3: DIQMTQSPSSLSASVGDRVTITCSASSSVSYMNWYQQKPGKAPKRLIYDTSKLASGVPSRFSGSGSGTDFTLTISSLQPEDFATYYCQQWSSNPPTFGGGTKVEIKRTVAAPSVFIFPPSDEQLKSGTASVVCLLNNFYPREAKVQWKVDNALQSGNSQESVTEQDSKDSTYSLSSTLTLSKADYEKHKVYACEVTHQGLSSPVTKSFNRGEC
notes: also called Kv4.33 (3XGS) BCMA/CD3
IC50 pM, TAA-dependent cytotoxicity (MM1.R target cells by the text) [6]: 134 pM

fold reduction of binding to CD3 [3]: > 1000 fold
B5: Kv6.2 (7GS) CD38/CD3 two-chain non-tandem bispecific antibody with non-cleavable GS second linker (bispecific antibody)
heavy: QVQLVESGGGLVKPGGSLRLSCAASGFTFSDDYMSWIRQAPGKGLEWVASVSNGRPTTYYADSVRGRFTISRDNAKNSLYLQMNSLRAEDTAVYYCAREGWSGEFTDWGQGTLVTVSSASTKGPSVFPLAPSSKSTSGGTAALGCLVKDYFPEPVTVSWNSGALTSGVHTFPAVLQSSGLYSLSSVVTVPSSSLGTQTYICNVNHKPSNTKVDKRVEPKSSDKTHTCPPCPAPEAAGGPSVFLFPPKPKDTLMISRTPEVTCVVVDVSHEDPEVKFNWYVDGVEVHNAKTKPREEQYNSTYRVVSVLTVLHQDWLNGKEYKCKVSNKALPAPIEKTISKAKGQPREPQVYTLPPSREEMTKNQVSLSCAVKGFYPSDIAVEWESNGQPENNYKTTPPVLDSDGSFFLVSKLTVDKSRWQQGNVFSCSVMHEALHNHYTQKSLSLSPGKGSGGSSGGGSGGGGSQVQLVQSGAEVKKPGASVKVSCKASGYTFISYTMHWVRQAPGQGLEWMGYINPRSGYTHYNQKLKDKATLTADKSASTAYMELSSLRSEDTAVYYCARSAYYDYDGFAYWGQGTLVTVSSASTKGPSVFPLAPSSKSTSGGTAALGCLVKDYFPEPVTVSWNSGALTSGVHTFPAVLQSSGLYSLSSVVTVPSSSLGTQTYICNVNHKPSNTKVDKRVEPKSC
light: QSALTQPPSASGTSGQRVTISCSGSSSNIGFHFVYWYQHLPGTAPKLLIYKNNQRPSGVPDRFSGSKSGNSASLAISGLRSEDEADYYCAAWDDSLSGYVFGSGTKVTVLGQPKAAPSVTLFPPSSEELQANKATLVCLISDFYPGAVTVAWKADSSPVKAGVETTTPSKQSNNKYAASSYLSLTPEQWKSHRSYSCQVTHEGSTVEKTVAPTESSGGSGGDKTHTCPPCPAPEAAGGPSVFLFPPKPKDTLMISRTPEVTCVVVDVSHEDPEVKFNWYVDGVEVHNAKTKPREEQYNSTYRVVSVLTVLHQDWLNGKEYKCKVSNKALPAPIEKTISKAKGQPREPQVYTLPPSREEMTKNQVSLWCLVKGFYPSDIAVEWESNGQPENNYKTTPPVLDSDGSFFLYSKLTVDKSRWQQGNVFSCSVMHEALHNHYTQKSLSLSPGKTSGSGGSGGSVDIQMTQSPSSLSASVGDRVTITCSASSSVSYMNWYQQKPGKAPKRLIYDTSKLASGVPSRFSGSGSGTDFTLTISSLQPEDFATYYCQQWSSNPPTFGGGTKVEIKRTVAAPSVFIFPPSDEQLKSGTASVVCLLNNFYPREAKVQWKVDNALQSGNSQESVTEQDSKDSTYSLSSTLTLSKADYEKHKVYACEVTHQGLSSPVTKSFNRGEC
notes: also called control non-cleavable bispecific antibody having a non-tandem structure (Kv6.2)
